From patent publication US20230272029A1, “CO-AGONISTS AT GLP-1 AND GIP RECEPTORS SUITABLE FOR ORAL DELIVERY” (Novo Nordisk A/S, priority 2020, published 2023)
Starred links: 1 amine or outer side, 2 acyl side, 3 side chain; linkers in the order of their positions; H or OH if unused. Non-standard residues stand in square brackets, D forms with d. Groups on a side chain read outwards from the residue. No end group written: not given here. *: point of attachment. C18 diacid = O=C(O)CCCCCCCCCCCCCCCCC(=O)*; C16 diacid = O=C(O)CCCCCCCCCCCCCCC(=O)*; γGlu = O=C(O)[C@H](CCC(=O)[*:2])N[*:1]; εLys = N[C@@H](CCCCN[*:1])C(=O)[*:2]; AEEA = NCCOCCOCC(=O)O; Aib = CC(C)(N)C(=O)O

T1: human GIP receptor (human, UniProt P48546 22-466)
T1 sequence (looked up): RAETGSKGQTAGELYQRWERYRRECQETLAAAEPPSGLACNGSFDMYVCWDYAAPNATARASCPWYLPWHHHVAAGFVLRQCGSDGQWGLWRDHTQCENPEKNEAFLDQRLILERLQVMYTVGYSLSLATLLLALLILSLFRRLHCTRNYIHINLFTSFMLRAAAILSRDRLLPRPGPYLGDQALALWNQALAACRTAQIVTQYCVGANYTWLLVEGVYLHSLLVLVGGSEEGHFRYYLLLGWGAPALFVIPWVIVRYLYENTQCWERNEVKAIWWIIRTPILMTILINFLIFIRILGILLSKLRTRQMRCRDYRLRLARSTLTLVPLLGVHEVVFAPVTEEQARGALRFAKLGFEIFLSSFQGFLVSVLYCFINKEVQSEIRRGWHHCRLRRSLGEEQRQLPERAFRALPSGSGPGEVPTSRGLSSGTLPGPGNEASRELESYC

B1: Compound No. 6 (peptide)
peptide: Y[Aib]EGTFTSDYSIYLEK([εLys-εLys-γGlu-C18 diacid])QAAREFVNWLLAGGPSSGAPPPS-NH2
modifications: N-terminus assumed
SMILES: CC[C@H](C)[C@H](NC(=O)[C@H](CO)NC(=O)[C@H](Cc1ccc(O)cc1)NC(=O)[C@H](CC(=O)O)NC(=O)[C@H](CO)NC(=O)[C@@H](NC(=O)[C@H](Cc1ccccc1)NC(=O)[C@@H](NC(=O)CNC(=O)[C@H](CCC(=O)O)NC(=O)C(C)(C)NC(=O)[C@@H](N)Cc1ccc(O)cc1)[C@@H](C)O)[C@@H](C)O)C(=O)N[C@@H](Cc1ccc(O)cc1)C(=O)N[C@@H](CC(C)C)C(=O)N[C@@H](CCC(=O)O)C(=O)N[C@@H](CCCCNC(=O)[C@@H](N)CCCCNC(=O)[C@@H](N)CCCCNC(=O)CC[C@H](NC(=O)CCCCCCCCCCCCCCCCC(=O)O)C(=O)O)C(=O)N[C@@H](CCC(N)=O)C(=O)N[C@@H](C)C(=O)N[C@@H](C)C(=O)N[C@@H](CCCNC(=N)N)C(=O)N[C@@H](CCC(=O)O)C(=O)N[C@@H](Cc1ccccc1)C(=O)N[C@H](C(=O)N[C@@H](CC(N)=O)C(=O)N[C@@H](Cc1c[nH]c2ccccc12)C(=O)N[C@@H](CC(C)C)C(=O)N[C@@H](CC(C)C)C(=O)N[C@@H](C)C(=O)NCC(=O)NCC(=O)N1CCC[C@H]1C(=O)N[C@@H](CO)C(=O)N[C@@H](CO)C(=O)NCC(=O)N[C@@H](C)C(=O)N1CCC[C@H]1C(=O)N1CCC[C@H]1C(=O)N1CCC[C@H]1C(=O)N[C@@H](CO)C(N)=O)C(C)C
B2: Compound No. 5 (peptide)
peptide: Y[Aib]EGTFTSDYSYYLEK([εLys-εLys-γGlu-C18 diacid])QAAQAFVNWLLAGGPSSGAPPPS-OH
modifications: N-terminus assumed
SMILES: CC(C)C[C@H](NC(=O)[C@H](CC(C)C)NC(=O)[C@H](Cc1c[nH]c2ccccc12)NC(=O)[C@H](CC(N)=O)NC(=O)[C@@H](NC(=O)[C@H](Cc1ccccc1)NC(=O)[C@H](C)NC(=O)[C@H](CCC(N)=O)NC(=O)[C@H](C)NC(=O)[C@H](C)NC(=O)[C@H](CCC(N)=O)NC(=O)[C@H](CCCCNC(=O)[C@@H](N)CCCCNC(=O)[C@@H](N)CCCCNC(=O)CC[C@H](NC(=O)CCCCCCCCCCCCCCCCC(=O)O)C(=O)O)NC(=O)[C@H](CCC(=O)O)NC(=O)[C@H](CC(C)C)NC(=O)[C@H](Cc1ccc(O)cc1)NC(=O)[C@H](Cc1ccc(O)cc1)NC(=O)[C@H](CO)NC(=O)[C@H](Cc1ccc(O)cc1)NC(=O)[C@H](CC(=O)O)NC(=O)[C@H](CO)NC(=O)[C@@H](NC(=O)[C@H](Cc1ccccc1)NC(=O)[C@@H](NC(=O)CNC(=O)[C@H](CCC(=O)O)NC(=O)C(C)(C)NC(=O)[C@@H](N)Cc1ccc(O)cc1)[C@@H](C)O)[C@@H](C)O)C(C)C)C(=O)N[C@@H](C)C(=O)NCC(=O)NCC(=O)N1CCC[C@H]1C(=O)N[C@@H](CO)C(=O)N[C@@H](CO)C(=O)NCC(=O)N[C@@H](C)C(=O)N1CCC[C@H]1C(=O)N1CCC[C@H]1C(=O)N1CCC[C@H]1C(=O)N[C@@H](CO)C(=O)O
B3: Compound No. 36 (peptide)
peptide: Y[Aib]EGTFTSDYSIILEK([AEEA-AEEA-γGlu-C18 diacid])QAAREFINWLLAGGPSSGAPPPS-OH
modifications: N-terminus assumed
SMILES: CC[C@H](C)[C@H](NC(=O)[C@H](Cc1ccccc1)NC(=O)[C@H](CCC(=O)O)NC(=O)[C@H](CCCNC(=N)N)NC(=O)[C@H](C)NC(=O)[C@H](C)NC(=O)[C@H](CCC(N)=O)NC(=O)[C@H](CCCCNC(=O)COCCOCCNC(=O)COCCOCCNC(=O)CC[C@H](NC(=O)CCCCCCCCCCCCCCCCC(=O)O)C(=O)O)NC(=O)[C@H](CCC(=O)O)NC(=O)[C@H](CC(C)C)NC(=O)[C@@H](NC(=O)[C@@H](NC(=O)[C@H](CO)NC(=O)[C@H](Cc1ccc(O)cc1)NC(=O)[C@H](CC(=O)O)NC(=O)[C@H](CO)NC(=O)[C@@H](NC(=O)[C@H](Cc1ccccc1)NC(=O)[C@@H](NC(=O)CNC(=O)[C@H](CCC(=O)O)NC(=O)C(C)(C)NC(=O)[C@@H](N)Cc1ccc(O)cc1)[C@@H](C)O)[C@@H](C)O)[C@@H](C)CC)[C@@H](C)CC)C(=O)N[C@@H](CC(N)=O)C(=O)N[C@@H](Cc1c[nH]c2ccccc12)C(=O)N[C@@H](CC(C)C)C(=O)N[C@@H](CC(C)C)C(=O)N[C@@H](C)C(=O)NCC(=O)NCC(=O)N1CCC[C@H]1C(=O)N[C@@H](CO)C(=O)N[C@@H](CO)C(=O)NCC(=O)N[C@@H](C)C(=O)N1CCC[C@H]1C(=O)N1CCC[C@H]1C(=O)N1CCC[C@H]1C(=O)N[C@@H](CO)C(=O)O
B4: Compound No. 7 (peptide)
peptide: Y[Aib]EGTFTSDYSIYLEK([AEEA-AEEA-γGlu-C18 diacid])QAAREFVNWLLAGGPSSGAPPPS-NH2
modifications: N-terminus assumed
SMILES: CC[C@H](C)[C@H](NC(=O)[C@H](CO)NC(=O)[C@H](Cc1ccc(O)cc1)NC(=O)[C@H](CC(=O)O)NC(=O)[C@H](CO)NC(=O)[C@@H](NC(=O)[C@H](Cc1ccccc1)NC(=O)[C@@H](NC(=O)CNC(=O)[C@H](CCC(=O)O)NC(=O)C(C)(C)NC(=O)[C@@H](N)Cc1ccc(O)cc1)[C@@H](C)O)[C@@H](C)O)C(=O)N[C@@H](Cc1ccc(O)cc1)C(=O)N[C@@H](CC(C)C)C(=O)N[C@@H](CCC(=O)O)C(=O)N[C@@H](CCCCNC(=O)COCCOCCNC(=O)COCCOCCNC(=O)CC[C@H](NC(=O)CCCCCCCCCCCCCCCCC(=O)O)C(=O)O)C(=O)N[C@@H](CCC(N)=O)C(=O)N[C@@H](C)C(=O)N[C@@H](C)C(=O)N[C@@H](CCCNC(=N)N)C(=O)N[C@@H](CCC(=O)O)C(=O)N[C@@H](Cc1ccccc1)C(=O)N[C@H](C(=O)N[C@@H](CC(N)=O)C(=O)N[C@@H](Cc1c[nH]c2ccccc12)C(=O)N[C@@H](CC(C)C)C(=O)N[C@@H](CC(C)C)C(=O)N[C@@H](C)C(=O)NCC(=O)NCC(=O)N1CCC[C@H]1C(=O)N[C@@H](CO)C(=O)N[C@@H](CO)C(=O)NCC(=O)N[C@@H](C)C(=O)N1CCC[C@H]1C(=O)N1CCC[C@H]1C(=O)N1CCC[C@H]1C(=O)N[C@@H](CO)C(N)=O)C(C)C
B5: Compound No. 4 (peptide)
peptide: Y[Aib]EGTFTSDYSYYLEK([εLys-εLys-γGlu-C18 diacid])QAAQAFVNWLLAGGPSSGAPPPS-NH2
modifications: N-terminus assumed
SMILES: CC(C)C[C@H](NC(=O)[C@H](CC(C)C)NC(=O)[C@H](Cc1c[nH]c2ccccc12)NC(=O)[C@H](CC(N)=O)NC(=O)[C@@H](NC(=O)[C@H](Cc1ccccc1)NC(=O)[C@H](C)NC(=O)[C@H](CCC(N)=O)NC(=O)[C@H](C)NC(=O)[C@H](C)NC(=O)[C@H](CCC(N)=O)NC(=O)[C@H](CCCCNC(=O)[C@@H](N)CCCCNC(=O)[C@@H](N)CCCCNC(=O)CC[C@H](NC(=O)CCCCCCCCCCCCCCCCC(=O)O)C(=O)O)NC(=O)[C@H](CCC(=O)O)NC(=O)[C@H](CC(C)C)NC(=O)[C@H](Cc1ccc(O)cc1)NC(=O)[C@H](Cc1ccc(O)cc1)NC(=O)[C@H](CO)NC(=O)[C@H](Cc1ccc(O)cc1)NC(=O)[C@H](CC(=O)O)NC(=O)[C@H](CO)NC(=O)[C@@H](NC(=O)[C@H](Cc1ccccc1)NC(=O)[C@@H](NC(=O)CNC(=O)[C@H](CCC(=O)O)NC(=O)C(C)(C)NC(=O)[C@@H](N)Cc1ccc(O)cc1)[C@@H](C)O)[C@@H](C)O)C(C)C)C(=O)N[C@@H](C)C(=O)NCC(=O)NCC(=O)N1CCC[C@H]1C(=O)N[C@@H](CO)C(=O)N[C@@H](CO)C(=O)NCC(=O)N[C@@H](C)C(=O)N1CCC[C@H]1C(=O)N1CCC[C@H]1C(=O)N1CCC[C@H]1C(=O)N[C@@H](CO)C(N)=O

Tests used:
human GIP receptor = biological target: T1, human GIP receptor; test: cell-based or functional assay
human GLP-1 receptor = human GLP-1 receptor (human, UniProt P43220 24-463); test: cell-based or functional assay

Binder | hGIPR, CRE Luc 0% HSA EC50 (pM) (human GIP receptor) | hGIPR, CRE Luc 1% HSA EC50 (pM) (human GIP receptor) | hGLP-1R, CRE Luc 0% HSA EC50 (pM) (human GLP-1 receptor) | hGLP-1R, CRE Luc 1% HSA EC50 (pM) (human GLP-1 receptor)
Y[Aib]EGTFTSDYSILLEEQAAREFIEWLLAGGPSK([εLys-εLys-γGlu-C16 diacid])GAPPPS-OH [Compound No. 46] | 1.8 pM | 97 pM | 1.5 pM | 111 pM
B1 | 18.5 pM | 434 pM | 3.4 pM | 243 pM
B2 | 14.2 pM | 362 pM | 9.4 pM | 625 pM
Y[Aib]EGTFTSDYSILLEEQAAREFIEWLLAGGPSKGAPPPS-OH (not fully specified (residue 33)) [Compound No. 47] | 3.1 pM | 156 pM | 2.1 pM | 154 pM
B3 | 5.5 pM | 356 pM | 4.7 pM | 414 pM
B4 | 28.7 pM | 687 pM | 4.2 pM | 513 pM
Y[Aib]EGTFTSDYSILLEK([AEEA-AEEA-γGlu-C18 diacid])QAAREFINWLLAGGPSSGAPPPS-OH [Compound No. 35] | 5.2 pM | 303 pM | 3 pM | 413 pM
B5 | 8.5 pM | 294 pM | 6.6 pM | 484 pM
Y[Aib]EGTFTSDYSILLEEQAAREFIEWLLAGGPSK([AEEA-AEEA-γGlu-C18 diacid])GAPPPS-OH [Compound No. 45] | 3.8 pM | 1220 pM | 3.9 pM | 1580 pM
